Data as given in article PMC11153135.

Biological target: purified human SLAMF4 (hSLAMF4) protein, recombinant (human) (UniProt Q9BZW8)
Test: MST; Monolith NT.115; GST–lytC_22 in a gradient (11 to 0.34375 μg μl^-1) mixed 1:1 (vol/vol) with 0.2 μg μl^-1 fluorescently pre-labelled recombinant Slamf4, 30 min at room temperature; medium MST power; apparent

Sequence of UniProt Q9BZW8 (Q9BZW8 22-229): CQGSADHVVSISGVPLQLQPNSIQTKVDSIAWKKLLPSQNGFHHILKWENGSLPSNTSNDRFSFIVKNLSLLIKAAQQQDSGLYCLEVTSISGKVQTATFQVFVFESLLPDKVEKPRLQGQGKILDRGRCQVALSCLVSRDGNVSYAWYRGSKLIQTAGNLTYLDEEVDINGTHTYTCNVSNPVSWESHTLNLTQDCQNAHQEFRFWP

“GST–lytC_22 (recombinant glutathione S-transferase-tagged N-acetylmuramoyl-L-alanine amidase lytC_22 of P. anaerobius) (natural protein)” gave a Kd of 40.1 nM.
